Laboratory results as given in patent US20140274782A1, “AFFINITY REAGENTS AND METHODS FOR DETECTION, PURIFICATION, AND PROTEOMIC ANALYSIS OF METHYLATED PROTEINS” (The Board of Trustees of the Leland Stanford Junior …, priority 2013, published 2014).

Legend:
[1] = target: ACSL4-acyl-CoA synthetase long-chain family member 4 (ACSL4), transcript variant 2 (human) (UniProt O60488); test: ProtoArray, GST-treated control array
[2] = target: AP1S1-adaptor-related protein complex 1, sigma 1 subunit (AP1S1), transcript variant 1 (human) (UniProt P61966); test: ProtoArray, GST-treated control array
[3] = target: C1QTNF6-C1q and tumor necrosis factor related protein 6 (C1QTNF6), transcript variant 1 (human) (UniProt Q9BXI9); test: ProtoArray, GST-treated control array
[4] = target: CALN1-calneuron 1 (CALN1), transcript variant 1 (human) (UniProt Q9BXU9); test: ProtoArray, GST-treated control array
[5] = target: CDK10-cyclin-dependent kinase (CDC2-like) 10 (CDK10), transcript variant a (human) (UniProt Q15131); test: ProtoArray, GST-treated control array
[6] = target: CRB3-crumbs homolog 3 (Drosophila) (CRB3), transcript variant 2 (human) (UniProt Q9BUF7); test: ProtoArray, GST-treated control array
[7] = target: DNTT-deoxynucleotidyltransferase, terminal (DNTT), transcript variant 1 (human) (UniProt P04053); test: ProtoArray, GST-treated control array
[8] = target: DYNC2LI1-dynein, cytoplasmic 2, light intermediate chain 1, mRNA (cDNA clone MGC:12166 IMAGE:3828551), complete cds (human) (UniProt Q8TCX1); test: ProtoArray, GST-treated control array
[9] = target: GPX5-glutathione peroxidase 5 (epididymal androgen-related protein) (GPX5), transcript variant 2, mRNA. (human) (UniProt O75715); test: ProtoArray, GST-treated control array
[10] = target: GYPC-glycophorin C (Gerbich blood group) (GYPC), transcript variant 2 (human) (UniProt P04921); test: ProtoArray, GST-treated control array
[11] = target: LARP6-La ribonucleoprotein domain family, member 6 (LARP6), transcript variant 2 (human) (UniProt Q9BRS8); test: ProtoArray, GST-treated control array
[12] = target: LPAL2-lipoprotein, Lp(a)-like 2 (LPAL2), transcript variant 1 (human) (UniProt Q16609); test: ProtoArray, GST-treated control array
[13] = target: MRPL21-mitochondrial ribosomal protein L21 (MRPL21), nuclear gene encoding mitochondrial protein, transcript variant 1 (human) (UniProt Q7Z2W9); test: ProtoArray, GST-treated control array
[14] = target: NME1-non-metastatic cells 1, protein (NM23A) expressed in (NME1), transcript variant 2 (human) (UniProt P15531); test: ProtoArray, GST-treated control array
[15] = target: NME7-non-metastatic cells 7, protein expressed in (nucleoside-diphosphate kinase) (NME7), transcript variant 2 (human) (UniProt Q9Y5B8); test: ProtoArray, GST-treated control array
[16] = target: PAEP-progestagen-associated endometrial protein (placental protein 14, pregnancy-associated endometrial alpha-2-globulin, alpha uterine protein), transcript variant 2 (PAEP) (human) (UniProt P09466); test: ProtoArray, GST-treated control array
[17] = target: PHF20L1-PHD finger protein 20-like 1 (PHF20L1), transcript variant 3 (human) (UniProt A8MW92); test: ProtoArray, GST-treated control array
[18] = target: PPARG-peroxisome proliferator-activated receptor gamma (PPARG), transcript variant 4 (human) (UniProt P37231); test: ProtoArray, GST-treated control array
[19] = target: RTN1-reticulon 1 (RTN1), transcript variant 3 (human) (UniProt Q16799); test: ProtoArray, GST-treated control array
[20] = target: TEAD4-TEA domain family member 4 (TEAD4), transcript variant 3 (human) (UniProt Q15561); test: ProtoArray, GST-treated control array
[21] = target: T1, TMEM32-transmembrane protein 32 (TMEM32) (human) (UniProt Q8N4V1); test: ProtoArray, GST-treated control array
T1 sequence (looked up): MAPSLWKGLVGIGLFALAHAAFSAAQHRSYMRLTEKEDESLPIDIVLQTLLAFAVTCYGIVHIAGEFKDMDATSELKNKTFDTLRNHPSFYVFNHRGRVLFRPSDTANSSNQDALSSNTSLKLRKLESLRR

[22] = target: VPS29-vacuolar protein sorting 29 homolog (S. cerevisiae) (VPS29), transcript variant 1 (human) (UniProt Q9UBQ0); test: ProtoArray, GST-treated control array
[23] = target: WDR45-WD repeat domain 45 (WDR45), transcript variant 1 (human) (UniProt Q9Y484); test: ProtoArray, GST-treated control array
[24] = target: ZNF695-zinc finger protein 695 (ZNF695) (human) (UniProt Q8IW36); test: ProtoArray, GST-treated control array
[25] = target: C10orf58, G9a-methylated (human) (UniProt Q9BRX8); test: ProtoArray methylated with G9a SET domain
[26] = target: C10orf83, G9a-methylated (human) (UniProt Q8NDC4); test: ProtoArray methylated with G9a SET domain
[27] = target: CD79A, G9a-methylated (human) (UniProt P11912); test: ProtoArray methylated with G9a SET domain
[28] = target: DIRAS1, G9a-methylated (human) (UniProt O95057); test: ProtoArray methylated with G9a SET domain
DIRAS1, G9a-methylated (human), sequence (O95057 whole entry, the tested form may be a part): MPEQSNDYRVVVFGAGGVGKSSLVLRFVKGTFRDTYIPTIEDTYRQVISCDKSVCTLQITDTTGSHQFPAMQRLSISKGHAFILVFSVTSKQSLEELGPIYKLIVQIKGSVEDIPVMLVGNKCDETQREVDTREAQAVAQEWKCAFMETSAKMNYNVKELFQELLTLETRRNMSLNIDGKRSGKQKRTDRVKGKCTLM

C10orf83, G9a-methylated (human), sequence (Q8NDC4 whole entry, the tested form may be a part): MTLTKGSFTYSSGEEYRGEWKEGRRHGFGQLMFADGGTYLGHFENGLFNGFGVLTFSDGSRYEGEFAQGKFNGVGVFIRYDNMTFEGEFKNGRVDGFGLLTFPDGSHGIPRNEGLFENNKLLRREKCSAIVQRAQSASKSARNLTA
NME1-non-metastatic cells 1, protein (NM23A) expressed in (NME1), transcript variant 2 (human), sequence (P15531 whole entry, change not shown): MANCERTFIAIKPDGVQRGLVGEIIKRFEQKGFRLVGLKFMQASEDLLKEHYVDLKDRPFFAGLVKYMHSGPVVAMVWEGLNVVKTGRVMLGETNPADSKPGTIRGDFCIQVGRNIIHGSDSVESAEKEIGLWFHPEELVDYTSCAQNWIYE
CRB3-crumbs homolog 3 (Drosophila) (CRB3), transcript variant 2 (human), sequence (Q9BUF7 27-120, change not shown): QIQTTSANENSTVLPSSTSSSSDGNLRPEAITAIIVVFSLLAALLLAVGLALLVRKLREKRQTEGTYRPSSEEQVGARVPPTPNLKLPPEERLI
ACSL4-acyl-CoA synthetase long-chain family member 4 (ACSL4), transcript variant 2 (human), sequence (O60488 whole entry, change not shown): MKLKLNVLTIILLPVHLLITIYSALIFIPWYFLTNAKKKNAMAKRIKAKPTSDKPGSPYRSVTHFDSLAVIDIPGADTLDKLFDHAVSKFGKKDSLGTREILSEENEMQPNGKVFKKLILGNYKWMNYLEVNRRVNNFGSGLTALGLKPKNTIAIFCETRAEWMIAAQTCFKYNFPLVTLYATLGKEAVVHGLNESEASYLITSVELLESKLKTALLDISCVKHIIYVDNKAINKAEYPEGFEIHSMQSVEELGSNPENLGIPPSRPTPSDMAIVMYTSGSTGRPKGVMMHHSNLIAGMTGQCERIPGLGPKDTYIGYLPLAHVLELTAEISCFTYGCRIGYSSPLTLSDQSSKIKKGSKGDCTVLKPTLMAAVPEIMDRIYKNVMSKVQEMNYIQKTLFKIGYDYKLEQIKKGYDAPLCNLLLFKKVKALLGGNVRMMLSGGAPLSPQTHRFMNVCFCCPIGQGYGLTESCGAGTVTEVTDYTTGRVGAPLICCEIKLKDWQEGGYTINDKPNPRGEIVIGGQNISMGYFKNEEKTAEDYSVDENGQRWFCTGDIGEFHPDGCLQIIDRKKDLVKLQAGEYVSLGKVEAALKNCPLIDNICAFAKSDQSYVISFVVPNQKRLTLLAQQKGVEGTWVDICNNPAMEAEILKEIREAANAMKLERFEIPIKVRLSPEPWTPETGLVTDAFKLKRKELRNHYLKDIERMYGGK
CD79A, G9a-methylated (human), sequence (P11912 33-226 limits assumed): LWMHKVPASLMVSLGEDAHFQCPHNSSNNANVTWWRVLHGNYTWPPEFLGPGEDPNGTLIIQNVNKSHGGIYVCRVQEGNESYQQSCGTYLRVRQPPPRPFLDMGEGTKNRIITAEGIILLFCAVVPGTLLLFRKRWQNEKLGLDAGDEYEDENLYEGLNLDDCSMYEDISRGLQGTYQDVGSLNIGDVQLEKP
GPX5-glutathione peroxidase 5 (epididymal androgen-related protein) (GPX5), transcript variant 2, mRNA. (human), sequence (O75715 other isoform, or with tags, fused parts or gaps mutant): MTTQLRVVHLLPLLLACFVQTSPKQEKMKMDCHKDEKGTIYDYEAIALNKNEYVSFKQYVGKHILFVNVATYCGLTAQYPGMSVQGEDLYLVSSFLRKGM
LPAL2-lipoprotein, Lp(a)-like 2 (LPAL2), transcript variant 1 (human), sequence (Q16609 22-132, change not shown): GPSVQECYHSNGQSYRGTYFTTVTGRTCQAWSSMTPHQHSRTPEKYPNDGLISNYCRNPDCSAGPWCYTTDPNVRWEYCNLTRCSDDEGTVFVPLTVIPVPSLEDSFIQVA
RTN1-reticulon 1 (RTN1), transcript variant 3 (human), sequence (Q16799 other isoform, or with tags, fused parts or gaps mutant): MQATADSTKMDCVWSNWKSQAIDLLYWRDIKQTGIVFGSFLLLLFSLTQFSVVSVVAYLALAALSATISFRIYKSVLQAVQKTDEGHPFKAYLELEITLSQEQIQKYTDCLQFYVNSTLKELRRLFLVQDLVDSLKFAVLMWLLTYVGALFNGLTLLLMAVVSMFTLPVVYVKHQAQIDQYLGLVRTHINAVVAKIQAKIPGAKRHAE
NME7-non-metastatic cells 7, protein expressed in (nucleoside-diphosphate kinase) (NME7), transcript variant 2 (human), sequence (Q9Y5B8 37-376, change not shown): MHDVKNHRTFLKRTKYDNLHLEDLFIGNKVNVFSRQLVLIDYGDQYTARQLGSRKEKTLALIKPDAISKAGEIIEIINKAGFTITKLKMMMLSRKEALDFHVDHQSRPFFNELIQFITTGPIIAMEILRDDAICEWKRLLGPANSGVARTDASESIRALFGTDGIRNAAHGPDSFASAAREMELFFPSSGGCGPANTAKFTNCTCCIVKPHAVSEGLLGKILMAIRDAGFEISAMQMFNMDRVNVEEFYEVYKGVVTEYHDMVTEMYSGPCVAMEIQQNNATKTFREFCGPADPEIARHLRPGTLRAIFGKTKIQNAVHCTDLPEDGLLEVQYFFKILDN
CALN1-calneuron 1 (CALN1), transcript variant 1 (human), sequence (Q9BXU9 whole entry, change not shown): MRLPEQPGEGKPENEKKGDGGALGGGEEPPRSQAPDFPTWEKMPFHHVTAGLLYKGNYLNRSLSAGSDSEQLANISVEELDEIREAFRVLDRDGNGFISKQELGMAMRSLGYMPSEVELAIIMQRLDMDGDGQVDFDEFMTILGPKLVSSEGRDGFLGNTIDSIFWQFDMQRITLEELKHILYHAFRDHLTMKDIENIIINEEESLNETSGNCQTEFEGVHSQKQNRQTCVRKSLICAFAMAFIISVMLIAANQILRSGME
WDR45-WD repeat domain 45 (WDR45), transcript variant 1 (human), sequence (Q9Y484 other isoform, or with tags, fused parts or gaps mutant): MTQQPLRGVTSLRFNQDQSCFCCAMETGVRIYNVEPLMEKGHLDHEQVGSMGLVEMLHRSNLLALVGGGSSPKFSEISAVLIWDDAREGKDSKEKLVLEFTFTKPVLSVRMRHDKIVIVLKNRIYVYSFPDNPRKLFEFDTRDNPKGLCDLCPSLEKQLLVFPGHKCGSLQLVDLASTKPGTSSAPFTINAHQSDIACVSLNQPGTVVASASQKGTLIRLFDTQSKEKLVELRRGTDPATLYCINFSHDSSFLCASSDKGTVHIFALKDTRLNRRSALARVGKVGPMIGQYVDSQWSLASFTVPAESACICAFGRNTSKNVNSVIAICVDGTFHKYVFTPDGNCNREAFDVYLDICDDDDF
C1QTNF6-C1q and tumor necrosis factor related protein 6 (C1QTNF6), transcript variant 1 (human), sequence (Q9BXI9 47-278, change not shown): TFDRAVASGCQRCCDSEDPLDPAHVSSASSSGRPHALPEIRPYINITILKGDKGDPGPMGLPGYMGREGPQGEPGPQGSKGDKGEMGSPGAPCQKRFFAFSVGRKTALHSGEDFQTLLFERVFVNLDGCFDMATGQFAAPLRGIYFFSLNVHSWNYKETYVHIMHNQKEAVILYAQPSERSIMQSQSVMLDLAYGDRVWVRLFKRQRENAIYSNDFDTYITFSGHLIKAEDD
TEAD4-TEA domain family member 4 (TEAD4), transcript variant 3 (human), sequence (Q15561 130-434, change not shown): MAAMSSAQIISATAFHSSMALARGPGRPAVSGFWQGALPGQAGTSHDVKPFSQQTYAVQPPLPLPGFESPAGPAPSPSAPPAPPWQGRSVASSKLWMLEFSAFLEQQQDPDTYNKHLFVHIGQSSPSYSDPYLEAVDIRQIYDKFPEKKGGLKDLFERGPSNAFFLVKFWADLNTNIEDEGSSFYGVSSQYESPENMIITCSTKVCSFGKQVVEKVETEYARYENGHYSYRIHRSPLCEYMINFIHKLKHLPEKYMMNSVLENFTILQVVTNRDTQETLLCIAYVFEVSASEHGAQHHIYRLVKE
PAEP-progestagen-associated endometrial protein (placental protein 14, pregnancy-associated endometrial alpha-2-globulin, alpha uterine protein), transcript variant 2 (PAEP) (human), sequence (P09466 19-180, change not shown): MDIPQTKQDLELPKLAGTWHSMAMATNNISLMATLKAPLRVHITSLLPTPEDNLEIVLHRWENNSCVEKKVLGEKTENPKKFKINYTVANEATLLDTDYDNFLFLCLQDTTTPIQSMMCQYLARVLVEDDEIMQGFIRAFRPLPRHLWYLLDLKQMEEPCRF
CDK10-cyclin-dependent kinase (CDC2-like) 10 (CDK10), transcript variant a (human), sequence (Q15131 whole entry, change not shown): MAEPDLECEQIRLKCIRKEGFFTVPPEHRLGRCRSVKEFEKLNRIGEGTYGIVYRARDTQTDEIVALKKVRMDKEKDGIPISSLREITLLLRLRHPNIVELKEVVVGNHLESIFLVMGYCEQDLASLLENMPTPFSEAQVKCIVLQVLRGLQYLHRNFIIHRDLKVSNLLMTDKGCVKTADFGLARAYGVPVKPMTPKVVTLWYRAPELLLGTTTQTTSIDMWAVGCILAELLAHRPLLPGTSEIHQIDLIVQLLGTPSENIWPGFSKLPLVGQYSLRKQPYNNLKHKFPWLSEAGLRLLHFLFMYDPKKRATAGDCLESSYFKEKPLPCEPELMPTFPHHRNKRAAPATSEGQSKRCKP
GYPC-glycophorin C (Gerbich blood group) (GYPC), transcript variant 2 (human), sequence (P04921 other isoform, or with tags, fused parts or gaps mutant): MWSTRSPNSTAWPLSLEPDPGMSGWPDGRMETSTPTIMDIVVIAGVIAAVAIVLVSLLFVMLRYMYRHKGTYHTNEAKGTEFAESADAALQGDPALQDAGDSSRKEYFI
PHF20L1-PHD finger protein 20-like 1 (PHF20L1), transcript variant 3 (human), sequence (A8MW92 other isoform, or with tags, fused parts or gaps mutant): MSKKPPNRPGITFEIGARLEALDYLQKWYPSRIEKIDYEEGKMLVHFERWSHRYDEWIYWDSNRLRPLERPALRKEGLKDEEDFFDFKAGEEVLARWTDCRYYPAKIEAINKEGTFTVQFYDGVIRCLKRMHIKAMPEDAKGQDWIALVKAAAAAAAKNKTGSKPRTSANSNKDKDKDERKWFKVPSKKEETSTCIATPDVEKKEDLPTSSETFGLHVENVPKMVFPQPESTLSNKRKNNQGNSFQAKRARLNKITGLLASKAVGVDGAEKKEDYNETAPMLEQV
AP1S1-adaptor-related protein complex 1, sigma 1 subunit (AP1S1), transcript variant 1 (human), sequence (P61966 whole entry, change not shown, one chain of several): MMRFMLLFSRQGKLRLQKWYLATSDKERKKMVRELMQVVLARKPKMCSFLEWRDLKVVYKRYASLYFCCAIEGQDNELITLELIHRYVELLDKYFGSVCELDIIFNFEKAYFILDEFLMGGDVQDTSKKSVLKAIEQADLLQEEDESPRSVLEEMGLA
LARP6-La ribonucleoprotein domain family, member 6 (LARP6), transcript variant 2 (human), sequence (Q9BRS8 other isoform, or with tags, fused parts or gaps mutant): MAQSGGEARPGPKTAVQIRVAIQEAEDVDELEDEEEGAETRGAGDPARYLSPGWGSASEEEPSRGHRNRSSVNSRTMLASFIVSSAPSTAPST

3× Flag-3×MBT (designed binder) gave a GST Average SNR [1] of 1.41, a GST Average SNR [2] of 1.2 and a GST Average SNR [3] of -0.38. For the same substance, the GST Average SNR [4] was -0.055, the GST Average SNR [5] was 0.366 and the GST Average SNR [6] was -0.25. The GST Average SNR [7] was 0.378, the GST Average SNR [8] was -0.778 and the GST Average SNR [9] was -0.0425. It also gave a GST Average SNR [10] of 0.081, a GST Average SNR [11] of -1.03 and a GST Average SNR [12] of 0.282. It also gave a GST Average SNR [13] of 1.41, a GST Average SNR [14] of 1.06 and a GST Average SNR [15] of 0.543. For the same substance, the GST Average SNR [16] was 0.998, the GST Average SNR [17] was 1.13 and the GST Average SNR [18] was -0.436. For the same substance, the GST Average SNR [19] was 0.954, the GST Average SNR [20] was 0.753 and the GST Average SNR [21] was 1.5. The GST Average SNR [22] was 1.09, the GST Average SNR [23] was 1.35 and the GST Average SNR [24] was 1.5. For the same substance, the G9a Average SNR [25] was 17, the G9a Average SNR [26] was 15.4 and the G9a Average SNR [27] was 13.8. For the same substance, the G9a Average SNR [28] was 29.2.
